# In CN115819568A:
# B1: 肠道病毒A71单克隆抗体 1G10 (antibody, V domains shown)
# VH: EVKLVESGGGLVKPGGSLKLSCAASGFTFSSYVMSWVRQTPEKRLEWVASISNGGSTFYPDSVKGRLTISRDNARNILYLQMSSLRSEDTAMYYCARAYGNDWYFDVWGAGTTVTVSS
# VL: DIQMTQTTSSLSASLGDRVTISCRASQDISNYLNWYQQKPDGTVKLLIYYTSRLNSGVPSRFSGSGSGTDYSLTISNLEEEDIATYFCQQGNTAWTFGGGTKLEIKR
# Biological target: EV A71病毒样颗粒(VLP) (Enterovirus A71)
# Assay: sandwich ELISA: rabbit anti-EV A71 VLP serum as capture, VLP titrated, antibody 1.2 ng/ul as detector, positive at OD450>0.15
binder,measurement,value
B1,最低检出限度,3.12 ng/mL
